Experimental data reported in paper PMC9881158, “The DEAD-box protein Dbp6 is an ATPase and RNA annealase interacting with the peptidyl transferase center (PTC) of the ribosome” (Nucleic Acids Research, 2023).
Residue numbers refer to the chain shown, from its start.

Experiments:
Dbp6 M-I [1] = molecular target: T1, Dbp6 M-I (Saccharomyces cerevisiae, UniProt P53734 1-629, K240A); experiment: EMSA; 0.5 uM protein; stronger than WT; EMSA: 1 nM 32P-RNA, RB 1x (composition not in the material), RNasin, 15 min at 30 C, native PAGE in TBE; bridging: 0.8 uM Dbp6, RB 1x, 15 min at 30 C; settings: protein: recombinant; tags: N-terminal His6; chain copies: 2; label: 32P
T1 sequence: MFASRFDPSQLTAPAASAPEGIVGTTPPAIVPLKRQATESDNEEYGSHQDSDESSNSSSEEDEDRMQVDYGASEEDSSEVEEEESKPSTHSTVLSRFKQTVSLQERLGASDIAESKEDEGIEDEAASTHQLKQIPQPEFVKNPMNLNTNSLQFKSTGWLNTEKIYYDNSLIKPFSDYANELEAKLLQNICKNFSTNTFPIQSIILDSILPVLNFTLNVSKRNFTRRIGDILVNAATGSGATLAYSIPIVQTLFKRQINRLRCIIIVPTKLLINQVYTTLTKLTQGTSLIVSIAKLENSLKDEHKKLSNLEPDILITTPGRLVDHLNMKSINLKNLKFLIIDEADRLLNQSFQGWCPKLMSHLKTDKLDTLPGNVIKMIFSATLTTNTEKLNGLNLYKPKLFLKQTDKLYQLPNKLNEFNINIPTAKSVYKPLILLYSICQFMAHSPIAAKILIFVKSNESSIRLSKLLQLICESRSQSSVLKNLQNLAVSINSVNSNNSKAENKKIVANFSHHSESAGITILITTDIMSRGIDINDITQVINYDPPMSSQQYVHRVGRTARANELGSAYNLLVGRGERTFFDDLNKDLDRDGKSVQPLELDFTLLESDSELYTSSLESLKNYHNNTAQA

Dbp6 ΔN [2] = molecular target: T2, Dbp6 ΔN (Saccharomyces cerevisiae, UniProt P53734 1-629, del24-128); experiment: EMSA; 0.5 uM protein; like WT; EMSA: 1 nM 32P-RNA, RB 1x (composition not in the material), RNasin, 15 min at 30 C, native PAGE in TBE; bridging: 0.8 uM Dbp6, RB 1x, 15 min at 30 C; settings: protein: recombinant; tags: N-terminal His6; chain copies: 2; label: 32P
T2 sequence: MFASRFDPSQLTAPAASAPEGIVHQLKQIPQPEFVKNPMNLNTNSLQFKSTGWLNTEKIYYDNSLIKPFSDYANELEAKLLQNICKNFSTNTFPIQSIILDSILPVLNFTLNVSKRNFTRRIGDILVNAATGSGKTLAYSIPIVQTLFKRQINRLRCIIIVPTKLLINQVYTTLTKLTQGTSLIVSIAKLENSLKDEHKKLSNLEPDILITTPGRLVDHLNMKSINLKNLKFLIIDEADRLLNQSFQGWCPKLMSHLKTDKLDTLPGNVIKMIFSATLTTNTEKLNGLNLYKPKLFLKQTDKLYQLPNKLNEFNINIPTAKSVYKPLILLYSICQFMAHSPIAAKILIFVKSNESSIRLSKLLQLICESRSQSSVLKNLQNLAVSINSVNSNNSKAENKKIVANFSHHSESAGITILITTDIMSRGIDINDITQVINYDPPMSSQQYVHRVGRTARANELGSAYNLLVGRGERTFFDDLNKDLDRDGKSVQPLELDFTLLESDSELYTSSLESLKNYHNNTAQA

Dbp6 M-II = molecular target: T3, Dbp6 M-II (Saccharomyces cerevisiae, UniProt P53734 1-629, E342A); experiment: EMSA; 0.25 uM protein; stronger than WT; EMSA: 1 nM 32P-RNA, RB 1x (composition not in the material), RNasin, 15 min at 30 C, native PAGE in TBE; bridging: 0.8 uM Dbp6, RB 1x, 15 min at 30 C; settings: protein: recombinant, tags: N-terminal His6, chain copies: 2
T3 sequence: T1 sequence with A240K, E342A

Dbp6 M-I [3] = molecular target: T1, Dbp6 M-I; experiment: EMSA; 0.25 uM protein; not increased over WT; EMSA: 1 nM 32P-RNA, RB 1x (composition not in the material), RNasin, 15 min at 30 C, native PAGE in TBE; bridging: 0.8 uM Dbp6, RB 1x, 15 min at 30 C; settings: protein: recombinant; tags: N-terminal His6; chain copies: 2; label: 32P on ss38-mer; 3' overhang 20 nt on strand 1; 38 bp region with one C-C mismatch
Dbp6 ΔN [4] = molecular target: T2, Dbp6 ΔN; experiment: EMSA; 0.25 uM protein; like WT; EMSA: 1 nM 32P-RNA, RB 1x (composition not in the material), RNasin, 15 min at 30 C, native PAGE in TBE; bridging: 0.8 uM Dbp6, RB 1x, 15 min at 30 C; settings: protein: recombinant; tags: N-terminal His6; chain copies: 2; label: 32P on ss38-mer; 3' overhang 20 nt on strand 1; 38 bp region with one C-C mismatch

Measured: binding result

B1: ss38-mer (ssRNA)
RNA: CAGAACCGCUACACUGAAAUGAUCAAUUCCGGUCUCCC
binds: Dbp6 M-I [1] | Dbp6 ΔN [2] | Dbp6 M-II; label: 32P

B2: ds38/58 hemi-duplex (dsRNA)
RNA 1: GGGAGACCGGAAUUCAUCAUUUCAGUGUAGCGGUUCUGACGUGCAAAUCGAUCGUCGA
RNA 2: B1 RNA
binds: Dbp6 M-I [3] | Dbp6 ΔN [4] | Dbp6 M-II; label: 32P on ss38-mer, 3' overhang 20 nt on strand 1, 38 bp region with one C-C mismatch
